Measurements published in paper PMC10397247.
Each block holds one binder with its values, some of them ahead of it.

Columns and labels:
Test in all cases: two-hybrid library CCNG1;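 note: natural log of median RNA to DNA barcode read ratio; higher means stronger binding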
4H2233-bN = biological target: T1, 4H2233-bN
T1 chain: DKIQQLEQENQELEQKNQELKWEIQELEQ

4H2253-bN = biological target: T2, 4H2253-bN
T2 chain: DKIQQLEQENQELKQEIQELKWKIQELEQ

4H235-bN = biological target: T3, 4H235-bN
T3 chain: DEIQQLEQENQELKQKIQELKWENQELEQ

4H2444-bN = biological target: T4, 4H2444-bN
T4 chain: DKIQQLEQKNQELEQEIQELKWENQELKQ

4H2518-bN = biological target: T5, 4H2518-bN
T5 chain: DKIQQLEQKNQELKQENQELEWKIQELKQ

4H2585-bN = biological target: T6, 4H2585-bN
T6 chain: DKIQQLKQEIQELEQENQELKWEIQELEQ

4H264-bN = biological target: T7, 4H264-bN
T7 chain: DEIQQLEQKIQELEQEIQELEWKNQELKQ

4H2760-bN = biological target: T8, 4H2760-bN
T8 chain: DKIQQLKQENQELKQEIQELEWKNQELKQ

4H2859-bN = biological target: T9, 4H2859-bN
T9 chain: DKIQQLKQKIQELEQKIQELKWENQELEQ

4H2931-bN = biological target: T10, 4H2931-bN
T10 chain: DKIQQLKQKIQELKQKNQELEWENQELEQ

4H3041-bN = biological target: T11, 4H3041-bN
T11 chain: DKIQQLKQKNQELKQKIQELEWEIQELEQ

4H3297-bN = biological target: T12, 4H3297-bN
T12 chain: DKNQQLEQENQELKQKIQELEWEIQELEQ

4H3364-bN = biological target: T13, 4H3364-bN
T13 chain: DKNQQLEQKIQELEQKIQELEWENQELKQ

4H3381-bN = biological target: T14, 4H3381-bN
T14 chain: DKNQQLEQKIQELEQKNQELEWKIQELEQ

4H349-bN = biological target: T15, 4H349-bN
T15 chain: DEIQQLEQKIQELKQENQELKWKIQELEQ

4H56-bN = biological target: T16, 4H56-bN
T16 chain: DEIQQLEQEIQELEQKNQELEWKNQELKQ

4H730-bN = biological target: T17, 4H730-bN
T17 chain: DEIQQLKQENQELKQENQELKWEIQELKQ

4H796-bN = biological target: T18, 4H796-bN
T18 chain: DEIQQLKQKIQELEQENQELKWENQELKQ

4H932-bN = biological target: T19, 4H932-bN
T19 chain: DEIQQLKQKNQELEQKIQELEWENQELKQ

4H949-bN = biological target: T20, 4H949-bN
T20 chain: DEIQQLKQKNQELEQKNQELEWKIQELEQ

O12-bP = biological target: T21, O12-bP
T21 chain: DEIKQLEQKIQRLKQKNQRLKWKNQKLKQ

O13-bP = biological target: T22, O13-bP
T22 chain: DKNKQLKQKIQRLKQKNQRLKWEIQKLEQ

O14-bP = biological target: T23, O14-bP
T23 chain: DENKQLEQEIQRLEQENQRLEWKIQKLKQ

O15-bP = biological target: T24, O15-bP
T24 chain: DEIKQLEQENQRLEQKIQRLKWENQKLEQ

O16-bP = biological target: T25, O16-bP
T25 chain: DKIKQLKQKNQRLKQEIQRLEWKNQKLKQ

O2-bP = biological target: T26, O2-bP
T26 chain: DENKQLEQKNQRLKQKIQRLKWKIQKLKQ

O3-bP = biological target: T27, O3-bP
T27 chain: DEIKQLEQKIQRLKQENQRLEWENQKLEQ

O4-bP = biological target: T28, O4-bP
T28 chain: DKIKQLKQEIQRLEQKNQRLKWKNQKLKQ

O5-bP = biological target: T29, O5-bP
T29 chain: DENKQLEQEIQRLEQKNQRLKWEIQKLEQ

O6-bP = biological target: T30, O6-bP
T30 chain: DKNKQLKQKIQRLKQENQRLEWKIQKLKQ

O7-bP = biological target: T31, O7-bP
T31 chain: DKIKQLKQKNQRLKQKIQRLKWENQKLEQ

O8-bP = biological target: T32, O8-bP
T32 chain: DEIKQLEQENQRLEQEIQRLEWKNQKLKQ

O9-bP = biological target: T33, O9-bP
T33 chain: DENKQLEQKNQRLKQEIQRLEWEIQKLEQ

interaction score (4H2233-bN): -1.12
interaction score (4H2253-bN): -0.322
interaction score (4H235-bN): -0.762
interaction score (4H2444-bN): -0.713
interaction score (4H2518-bN): 1.97
interaction score (4H2585-bN): -2.3
interaction score (4H264-bN): -0.163
interaction score (4H2760-bN): -0.863
interaction score (4H2859-bN): -0.431
interaction score (4H2931-bN): -0.485
interaction score (4H3041-bN): -1.98
interaction score (4H3297-bN): -1.34
interaction score (4H3364-bN): -0.324
interaction score (4H3381-bN): -0.889
interaction score (4H349-bN): -0.452
interaction score (4H56-bN): -0.577
interaction score (4H730-bN): -0.539
interaction score (4H796-bN): -0.624
interaction score (4H932-bN): -1.19
interaction score (4H949-bN): -1.36
Binder: DKIQQLEQENQELEQKNQELKWEIQELEQ [4H2233-bN]

interaction score (O12-bP): -0.0984
interaction score (O13-bP): -0.964
interaction score (O14-bP): -0.196
interaction score (O15-bP): -0.827
interaction score (O16-bP): -0.648
interaction score (O2-bP): -1.14
interaction score (O3-bP): -1.45
interaction score (O4-bP): 0.355
interaction score (O5-bP): -0.621
interaction score (O6-bP): -1.02
interaction score (O7-bP): -0.715
interaction score (O8-bP): -1.25
interaction score (O9-bP): 0.055
Binder: DEIKQLEQKIQRLKQKNQRLKWKNQKLKQ [O12-bP]
